Results: patent publication US20230129258A1 (Bicycle, published 2023)
Starred links: 1 amine or outer side, 2 acyl side, 3 side chain; linkers in the order of their positions; H or OH if unused. Positions of bridges follow the written chain, without caps; N, C: chain ends. Non-standard residues stand in square brackets, D forms with d. Chains are numbered I, II in the order given. No end group written: not given here. dLys(PYA) = D-lysine Nε-acylated with 4-pentynoic acid, clicked (triazole) to the linker azide, O=C(CCc1cn([*:3])nn1)NCCCC[C@@H](N[*:1])C(=O)[*:2]; TATA = O=C(CC[*:1])N1CN(C(=O)CC[*:2])CN(C(=O)CC[*:3])C1; 1Nal = N[C@@H](Cc1cccc2ccccc12)C(=O)O; Hyp = O=C(O)[C@@H]1C[C@@H](O)CN1; hArg = N=C(N)NCCCC[C@H](N)C(=O)O; tBuAla = CC(C)(C)C[C@H](N)C(=O)O; Nle = CCCC[C@H](N)C(=O)O

Experiments:
[1] = target: T1, human Nectin-4 extracellular domain (human, UniProt Q96NY8 32-349, biotinylated where captured on the streptavidin chip); experiment: SPR direct binding, biotinylated Nectin-4 ECD on streptavidin chip, 37° C., n = 9
T1 construct: extracellular domain; also called Nectin-4 (human); Biotinylated - Nectin-4 extracellular domain
T1 sequence (looked up): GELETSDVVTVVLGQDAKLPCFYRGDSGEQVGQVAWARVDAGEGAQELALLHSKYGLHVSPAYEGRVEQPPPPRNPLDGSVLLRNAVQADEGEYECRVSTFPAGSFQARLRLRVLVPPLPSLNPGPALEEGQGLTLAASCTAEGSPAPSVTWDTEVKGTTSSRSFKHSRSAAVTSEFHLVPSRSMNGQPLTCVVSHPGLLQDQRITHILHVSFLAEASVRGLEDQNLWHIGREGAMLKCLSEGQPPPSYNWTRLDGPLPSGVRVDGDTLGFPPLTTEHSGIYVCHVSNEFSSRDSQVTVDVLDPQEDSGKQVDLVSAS

[2] = target: T2, human CD137 extracellular domain (human, UniProt Q07011 24-186, biotinylated where captured on the streptavidin chip); experiment: SPR, direct binding of BCY11863 to immobilized human CD137, 1:1 fit; the text says the reported KD may be an overestimation (avidity)
T2 construct: extracellular domain; Section 17 says only 'Recombinant human CD137 (R&D systems)'; also called CD137 (human); Recombinant human CD137 (R&D systems)
T2 sequence (Q07011 24-186): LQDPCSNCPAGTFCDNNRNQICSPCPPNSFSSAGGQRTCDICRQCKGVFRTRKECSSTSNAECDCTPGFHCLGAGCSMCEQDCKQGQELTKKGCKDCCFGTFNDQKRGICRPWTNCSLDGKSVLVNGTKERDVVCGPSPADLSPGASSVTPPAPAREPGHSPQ

[3] = target: T3, cyno (NHP) CD137 extracellular domain (cyno (NHP), UniProt A9YYE7 24-186); experiment: SPR dual binding, BCY11863 captured on biotinylated human Nectin-4, soluble CD137 ECD passed over, n = 3
T3 construct: extracellular domain
T3 sequence (A9YYE7 entry or part of it): as the sequence (Q07011 24-186) above, with P4L, N19S, R50K, T66I, P67S, F69Y, G75E, V149A counted along it

[4] = target: T4, Nectin-like-2 (3519-S4-050, R&D Systems) (UniProt Q9BY67 45-374, biotinylated); experiment: SPR, biotinylated target on streptavidin surface
T4 sequence (looked up): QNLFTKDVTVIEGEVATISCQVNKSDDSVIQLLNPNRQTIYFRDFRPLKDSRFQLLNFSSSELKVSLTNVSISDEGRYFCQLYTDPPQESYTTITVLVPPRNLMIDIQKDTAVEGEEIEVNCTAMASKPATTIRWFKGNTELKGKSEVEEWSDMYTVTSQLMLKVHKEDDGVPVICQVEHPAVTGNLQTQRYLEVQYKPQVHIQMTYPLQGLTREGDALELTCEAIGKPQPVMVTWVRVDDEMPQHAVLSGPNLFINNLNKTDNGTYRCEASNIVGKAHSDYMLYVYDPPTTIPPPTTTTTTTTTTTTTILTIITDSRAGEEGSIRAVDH

[5] = target: Nectin-3 (3064-N3, R&D Systems) (UniProt Q9NQS3 58-404, limits assumed, biotinylated); experiment: SPR, biotinylated target on streptavidin surface
Nectin-3 (3064-N3, R&D Systems), sequence (Q9NQS3 58-404 limits assumed): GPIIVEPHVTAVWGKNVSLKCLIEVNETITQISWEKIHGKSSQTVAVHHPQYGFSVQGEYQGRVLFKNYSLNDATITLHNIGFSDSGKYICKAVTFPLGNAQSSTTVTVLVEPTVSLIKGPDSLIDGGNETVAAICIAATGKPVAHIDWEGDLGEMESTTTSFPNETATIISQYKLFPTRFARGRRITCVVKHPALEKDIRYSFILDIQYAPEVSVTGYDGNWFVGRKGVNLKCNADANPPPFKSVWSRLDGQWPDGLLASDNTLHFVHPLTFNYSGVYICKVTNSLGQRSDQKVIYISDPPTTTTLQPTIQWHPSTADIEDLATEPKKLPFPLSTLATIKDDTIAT

[6] = target: T5, Nectin-like-3 (4290-S4-050, R&D Systems) (UniProt Q8N3J6 25-367, biotinylated); experiment: SPR, biotinylated target on streptavidin surface
T5 sequence (looked up): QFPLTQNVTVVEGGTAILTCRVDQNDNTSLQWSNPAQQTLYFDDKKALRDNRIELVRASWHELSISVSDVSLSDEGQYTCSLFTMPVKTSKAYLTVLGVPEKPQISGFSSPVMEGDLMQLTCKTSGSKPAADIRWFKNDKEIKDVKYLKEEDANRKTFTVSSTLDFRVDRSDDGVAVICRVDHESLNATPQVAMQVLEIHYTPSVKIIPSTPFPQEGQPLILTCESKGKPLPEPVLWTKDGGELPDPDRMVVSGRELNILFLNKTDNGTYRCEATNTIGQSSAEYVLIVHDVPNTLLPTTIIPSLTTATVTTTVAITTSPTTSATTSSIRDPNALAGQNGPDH

[7] = target: T6, Nectin-like-4 (4164-S4, R&D Systems) (UniProt Q8NFZ8 21-324, biotinylated); experiment: SPR, biotinylated target on streptavidin surface
T6 sequence (looked up): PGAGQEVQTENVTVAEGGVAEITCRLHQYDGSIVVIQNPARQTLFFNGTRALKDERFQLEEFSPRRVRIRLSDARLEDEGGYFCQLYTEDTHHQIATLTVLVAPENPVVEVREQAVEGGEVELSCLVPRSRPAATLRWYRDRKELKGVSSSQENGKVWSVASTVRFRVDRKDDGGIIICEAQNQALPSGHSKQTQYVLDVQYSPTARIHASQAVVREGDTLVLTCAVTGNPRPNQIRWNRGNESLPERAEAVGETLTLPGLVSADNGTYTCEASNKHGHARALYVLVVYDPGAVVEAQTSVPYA

[8] = target: T7, Nectin-like-5 (2530-CD-050, R&D Systems) (UniProt P15151 27-343, biotinylated); experiment: SPR, biotinylated target on streptavidin surface
T7 sequence (looked up): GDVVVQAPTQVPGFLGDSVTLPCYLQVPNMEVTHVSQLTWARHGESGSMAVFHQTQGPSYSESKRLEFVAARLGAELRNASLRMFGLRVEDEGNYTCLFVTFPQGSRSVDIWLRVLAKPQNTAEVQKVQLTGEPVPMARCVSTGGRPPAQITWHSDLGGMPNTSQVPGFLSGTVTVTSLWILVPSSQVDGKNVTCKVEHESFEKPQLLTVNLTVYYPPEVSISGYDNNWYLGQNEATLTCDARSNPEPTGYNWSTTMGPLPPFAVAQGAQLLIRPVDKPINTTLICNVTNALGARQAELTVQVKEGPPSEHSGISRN

[9] = target: CD137 on Jurkat reporter cells (Promega kit CS196005) (UniProt Q07011 24-255, limits assumed); experiment: cell-based or functional assay
CD137 on Jurkat reporter cells (Promega kit CS196005), sequence (Q07011 24-255 limits assumed): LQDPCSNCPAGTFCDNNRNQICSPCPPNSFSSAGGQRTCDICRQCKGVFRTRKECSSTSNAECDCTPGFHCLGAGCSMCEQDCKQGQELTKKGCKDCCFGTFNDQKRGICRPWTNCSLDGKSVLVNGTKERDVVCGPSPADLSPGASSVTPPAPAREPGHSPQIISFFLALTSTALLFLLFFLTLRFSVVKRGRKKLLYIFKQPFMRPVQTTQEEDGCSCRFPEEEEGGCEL

[10] = target: T2, human CD137 extracellular domain; experiment: SPR dual binding, BCY11863 captured on biotinylated human Nectin-4, soluble CD137 ECD passed over, n = 4

B1: heterotandem bicyclic peptide complex BCY11863 (peptide)
peptide 1: CP[1Nal][dD]CM[hArg]DWSTP[Hyp]WC
peptide 2: Ac-C[tBuAla]PE[dLys(PYA)]PYCFADPY[Nle]CA
modifications: linker I:1-I:5-I:15, II:1-II:8-II:15 via TATA; not fully specified (bridges); also: 1:2 complex: BCY8116 + 2x BCY8928
notes: also called Nectin-4/CD137 heterotandem
Kd [1]: 5.2 nM | Kd [2]: 0.368 nM | Kd [3]: 18 nM | binding result [4]: no binding (tested: 5000 nM) | binding result [5]: no binding (tested: 5000 nM) | binding result [6]: no binding (tested: 5000 nM) | binding result [7]: no binding (tested: 5000 nM) | binding result [8]: no binding (tested: 5000 nM) | Arithmetic mean EC50 (nM), CT26#7 co-culture [9]: 0.14 nM | Arithmetic mean EC50 (nM), HT1376 co-culture [9]: 0.52 nM | Arithmetic mean EC50 (nM), MC38#13 co-culture [9]: 0.31 nM | Arithmetic mean EC50 (nM), MDA-MB-468 co-culture [9]: 0.23 nM | Arithmetic mean EC50 (nM), NCI-H292 co-culture [9]: 0.28 nM | Arithmetic mean EC50 (nM), NCI-H322 co-culture [9]: 0.33 nM | Arithmetic mean EC50 (nM), T47D co-culture [9]: 0.42 nM | Kd [10]: 6.3 nM
